{"source": "paper PMC9910466", "about": "(Proceedings of the National Academy of Sciences of the …, 2022)", "key": {"[1]": {"biological_target": "Ufd1^ΔSIM/Npl4 dimer, biotinylated (S. cerevisiae) (UniProt P53044)", "assay": "BLI; biotinylated Ufd1/Npl4 dimer (WT Ufd1 or Ufd1^ΔSIM) immobilised on streptavidin biosensors, serial dilution of substrate; 30 °C; PBS, 0.02% Tween-20, 0.1% BSA, 0.1 mM TCEP; 2:1 heterogeneous ligand fit"}, "Npl4 (S. cerevisiae)": {"biological_target": "T1, Npl4 (S. cerevisiae) (S. cerevisiae, UniProt P33755 1-580)", "T1 construct": "Npl4, S. cerevisiae, codon-optimized gene; source: E. coli BL21-CodonPlus (DE3)-RIL, purified with Ufd1 (Ni-NTA, TEV protease, SEC); not shown: His tag (from the Ni-NTA purification)", "T1 sequence": "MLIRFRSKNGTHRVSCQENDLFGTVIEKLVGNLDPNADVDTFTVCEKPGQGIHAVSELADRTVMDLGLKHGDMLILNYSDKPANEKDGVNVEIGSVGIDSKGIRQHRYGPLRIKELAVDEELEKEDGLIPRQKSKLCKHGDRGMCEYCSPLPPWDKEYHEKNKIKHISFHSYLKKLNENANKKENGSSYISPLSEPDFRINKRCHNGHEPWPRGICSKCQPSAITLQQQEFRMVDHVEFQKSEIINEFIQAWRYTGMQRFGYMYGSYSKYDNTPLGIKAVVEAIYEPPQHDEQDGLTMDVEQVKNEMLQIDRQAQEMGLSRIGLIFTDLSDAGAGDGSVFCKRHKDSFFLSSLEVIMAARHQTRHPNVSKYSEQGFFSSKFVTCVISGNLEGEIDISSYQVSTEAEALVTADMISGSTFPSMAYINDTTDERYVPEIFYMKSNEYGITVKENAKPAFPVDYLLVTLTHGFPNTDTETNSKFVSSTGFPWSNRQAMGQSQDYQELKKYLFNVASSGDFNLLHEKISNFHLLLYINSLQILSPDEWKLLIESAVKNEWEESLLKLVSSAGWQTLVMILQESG", "assay": "cryo-EM structure; 2 μM Ufd1/Npl4, 2 μM Cdc48, 2.5 μM 1S1U^H-mEOS, on ice with 1 mM ATP in 20 mM HEPES pH 8.0, 150 mM NaCl, 0.1 mM TCEP, 5 mM MgCl2; single-particle", "conditions": "both partners purified"}}}
{"molecule": "1S1U-mEOS substrate without polyubiquitin chain (one SUMO and one ubiquitin fused end to end with the N-terminus of mEOS) (from UniProt Q12306 1-101; P0CG63 1-76)", "values": [{"measurement": "fold binding defect against WT Ufd1/Npl4", "setting": "[1]", "result": 100, "unit": "fold"}]}
{"molecule": "Ufd1 (S. cerevisiae) (natural protein, Ufd1, S. cerevisiae, codon-optimized gene; residues 228 to 256 and 281 to 311 resolved in the maps; source: E. coli BL21-CodonPlus (DE3)-RIL, purified with Npl4 (Ni-NTA, TEV protease, SEC); not shown: His tag (from the Ni-NTA purification)) MFSGFSSFGGGNGFVNMPQTFEEFFRCYPIAMMNDRIRKDDANFGGKIFLPPSALSKLSMLNIRYPMLFKLTANETGRVTHGGVLEFIAEEGRVYLPQWMMETLGIQPGSLLQISSTDVPLGQFVKLEPQSVDFLDISDPKAVLENVLRNFSTLTVDDVIEISYNGKTFKIKILEVKPESSSKSICVIETDLVTDFAPPVGYVEPDYKALKAQQDKEKKNSFGKGQVLDPSVLGQGSMSTRIDYAGIANSSRNKLSKFVGQGQNISGKAPKAEPKQDIKDMKITFDGEPAKLDLPEGQLFFGFPMVLPKEDEESAAGSKSSEQNFQGQGISLRKSNKRKTKSDHDSSKSKAPKSPEVIEID", "values": [{"measurement": "binding result", "setting": "Npl4 (S. cerevisiae)", "result": "binds"}]}
